In publication PMC4539346 one finds Kd, koff and kon data, which are given here for five substances.

The target in this test is human IgM (Calbiochem 401108) (human). The test can be described thus: SPR; IgM amine-coupled to a GLC sensor chip (about 10,000 RU, pH 5), ProteOn XP36; DBL4ζ proteins flowed at 600-18.75 nM, 25 μl/min, 25 °C, 10 mM Tris pH 7.4, 140 mM NaCl, 2 mM CaCl2, 0.005% Tween-20; 1:1 Langmuir kinetic model. A general note: SPR reads the build-up and loss of mass on a sensor chip optically.

What is called Kd is the equilibrium constant for the complex coming apart. A low value points to higher affinity. Broadly, the koff is the first-order rate constant of dissociation. Low readings indicate slow dissociation, high ones fast dissociation. As a reminder, the kon is the rate constant with which the complex forms. For the substance “recombinant TM284var1 DBL4ζ E1663R (his-tagged, E. coli) (domain or fragment)”, the Kd is 115 nM, the dissociation rate constant (koff) amounted to 0.0148 s⁻¹ and the kon came out at 129000 M⁻¹ s⁻¹.
“recombinant TM284var1 DBL4ζ E1663R, E1665R, R1764E, E1779K (his-tagged, E. coli) (domain or fragment)” displayed a Kd of 41.2 nM, a koff of 0.00254 s⁻¹ and a kon of 61600 M⁻¹ s⁻¹.
In turn, “recombinant TM284var1 DBL4ζ E1663R, R1764E (his-tagged, E. coli) (domain or fragment)” yielded a Kd of 33.2 nM, a koff of 0.00159 s⁻¹ and a kon of 49400 M⁻¹ s⁻¹.
In the case of “recombinant TM284var1 DBL4ζ R1764E (his-tagged, E. coli) (domain or fragment)”, the dissociation constant (Kd) was found to be 41.6 nM, the koff worked out at 0.00189 s⁻¹ and the kon stood at 45100 M⁻¹ s⁻¹.
On the same counts, the results for “recombinant TM284var1 DBL4ζ wild type (his-tagged, E. coli) (domain or fragment)” are 66.2 nM, 0.0118 s⁻¹ and 179000 M⁻¹ s⁻¹.
